In PMC11301059, “The origin of esterase activity of Parkinson's disease causative factor DJ-1 implied by evolutionary trace analysis of its prokaryotic homolog HchA” (The Journal of Biological Chemistry, 2024):
Where a chain is given by its changes, count along the chain named. Numbers in names are those of the source.

Experiments:
[1] = substrate: CC(=O)Oc1ccc([N+](=O)[O-])cc1; assay: pNP formation, A400, initial velocity, Michaelis-Menten fit; type: biochemical, Homo sapiens; details: 50 mM sodium phosphate pH 7.0, 37 °C, 0.7 μM enzyme
Excerpt: pNP formation, A400, initial velocity, Michaelis-Menten fit on DJ-1

[2] = substrate: O=CC(=O)c1ccccc1; assay: PGO consumption, A250, initial velocity, Michaelis-Menten fit; type: biochemical, Homo sapiens; details: 20 mM sodium phosphate pH 7.0, 37 °C
Excerpt: PGO consumption, A250, initial velocity, Michaelis-Menten fit on DJ-1

[3] = substrate: O=CC(=O)c1ccccc1; assay: as above; type: biochemical, Escherichia coli; details: 20 mM sodium phosphate pH 7.0, 37 °C
Excerpt: PGO consumption, A250, initial velocity, Michaelis-Menten fit on HchA

[4] = substrate: CC(=O)Oc1ccc([N+](=O)[O-])cc1; assay: pNP formation, A400, initial velocity, Michaelis-Menten fit; type: biochemical, Escherichia coli; details: 50 mM sodium phosphate pH 7.0, 37 °C, 1 μM enzyme
Excerpt: pNP formation, A400, initial velocity, Michaelis-Menten fit on HchA

B1: DJ-1 (Homo sapiens) (protein)
chain: MASKRALVILAKGAEEMETVIPVDVMRRAGIKVTVAGLAGKDPVQCSRDVVICPDASLEDAKKEGPYDVVVLPGGNLGAQNLSESAAVKEILKEQENRKGLIAAICAGPTALLAHEIGFGSKVTTHPLAKDKMMNGGHYTYSENRVEKDGLILTSRGPGTSFEFALAIVEALNGKEVAAQVKAPLVLKD
notes: N-terminal His-tag (pET28a), expressed in E. coli BL21(DE3)+RIL, Ni-NTA purified, tag removal not mentioned
With B1 the Km [1] was 4.76 ± 1.25 × 10^-3 M, the kcat [1] was 5.47 ± 0.935 s⁻¹ and the kcat/Km [1] was 1180 ± 203 M⁻¹ s⁻¹. The Km ([2]; 2 μM enzyme) was 5.22 ± 0.65 × 10^-5 M, the kcat ([2]; 2 μM enzyme) was 0.12 ± 0.007 s⁻¹ and the kcat/Km ([2]; 2 μM enzyme) was 2400 ± 229 M⁻¹ s⁻¹.

B2: DJ-1 (Homo sapiens; A107H) (protein)
chain: B1 chain with A107H
notes: as for B1
For B2, the Km ([2]; 0.3 μM enzyme) was 6.44 ± 1.13 × 10^-4 M, the kcat ([2]; 0.3 μM enzyme) was 1.65 ± 0.127 s⁻¹ and the kcat/Km ([2]; 0.3 μM enzyme) was 2600 ± 303 M⁻¹ s⁻¹.

B3: HchA (Escherichia coli K-12) (protein)
chain: MTVQTSKNPQVDIAEDNAFFPSEYSLSQYTSPVSDLDGVDYPKPYRGKHKILVIAADERYLPTDNGKLFSTGNHPIETLLPLYHLHAAGFEFEVATISGLMTKFEYWAMPHKDEKVMPFFEQHKSLFRNPKKLADVVASLNADSEYAAIFVPGGHGALIGLPESQDVAAALQWAIKNDRFVISLCHGPAAFLALRHGDNPLNGYSICAFPDAADKQTPEIGYMPGHLTWYFGEELKKMGMNIINDDITGRVHKDRKLLTGDSPFAANALGKLAAQEMLAAYAG
notes: N-terminal His-tag (pET21a), expressed in E. coli BL21(DE3)+RIL, Ni-NTA purified, tag removal not mentioned; dimer
In the case of B3, the Km ([3]; 0.3 μM enzyme) is reported as 1.49 ± 0.40 × 10^-4 M, the kcat ([3]; 0.3 μM enzyme) is reported as 0.67 ± 0.053 s⁻¹ and the kcat/Km ([3]; 0.3 μM enzyme) is reported as 4730 ± 1250 M⁻¹ s⁻¹.

B4: HchA (Escherichia coli K-12; H186A) (protein)
chain: B3 chain with H186A
notes: as for B3
In the case of B4, the Km ([3]; 1.8 μM enzyme) is reported as 1.87 ± 0.24 × 10^-5 M, the kcat ([3]; 1.8 μM enzyme) is reported as 0.0491 ± 0.004 s⁻¹ and the kcat/Km ([3]; 1.8 μM enzyme) is reported as 2640 ± 202 M⁻¹ s⁻¹. The Km [4] was 4.76 ± 0.36 × 10^-3 M, the kcat [4] was 3.11 ± 0.144 s⁻¹ and the kcat/Km [4] was 655 ± 19.4 M⁻¹ s⁻¹.

B5: HchA (Escherichia coli K-12; D214A) (protein)
chain: B3 chain with D214A
notes: as for B3
In the case of B5, the Km ([3]; 1.8 μM enzyme) is reported as 2.55 ± 0.47 × 10^-5 M, the kcat ([3]; 1.8 μM enzyme) is reported as 0.075 ± 0.005 s⁻¹ and the kcat/Km ([3]; 1.8 μM enzyme) is reported as 2980 ± 355 M⁻¹ s⁻¹.
